# Data as given in PMC4434323.
# Columns and labels:
# [1] = target: T1, ceh-52 (C07E3.5) (Caenorhabditis elegans) (UniProt Q17788)
# T1 sequence: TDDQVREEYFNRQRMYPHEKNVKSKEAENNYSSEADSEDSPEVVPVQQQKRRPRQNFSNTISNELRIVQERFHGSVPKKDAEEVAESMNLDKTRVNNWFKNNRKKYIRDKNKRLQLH
# [2] = system: T2, ztf-14 (M163.2) (Caenorhabditis elegans)
# T2 sequence: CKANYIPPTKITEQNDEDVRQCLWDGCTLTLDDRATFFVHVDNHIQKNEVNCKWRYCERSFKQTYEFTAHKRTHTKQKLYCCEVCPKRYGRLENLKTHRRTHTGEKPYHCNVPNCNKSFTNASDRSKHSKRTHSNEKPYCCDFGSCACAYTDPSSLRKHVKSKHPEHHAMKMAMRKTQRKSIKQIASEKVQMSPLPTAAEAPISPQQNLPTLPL
# [3] = target: klf-3 (F54H5.4) (Caenorhabditis elegans) (UniProt Q65ZG6)
# [4] = target: T3, tbx-38 (C24H11.3) (Caenorhabditis elegans) (UniProt Q9XVD5)
# T3 sequence: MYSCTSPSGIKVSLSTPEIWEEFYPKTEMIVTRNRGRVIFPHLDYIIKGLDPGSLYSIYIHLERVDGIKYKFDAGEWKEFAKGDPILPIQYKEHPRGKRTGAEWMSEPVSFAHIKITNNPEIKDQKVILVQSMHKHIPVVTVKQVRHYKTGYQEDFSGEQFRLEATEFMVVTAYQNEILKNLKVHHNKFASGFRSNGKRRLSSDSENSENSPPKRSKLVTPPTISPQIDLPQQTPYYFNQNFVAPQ
# [5] = target: T4, tbx-43 (Y46E12A.4) (Caenorhabditis elegans) (UniProt Q1T6W8)
# T4 sequence: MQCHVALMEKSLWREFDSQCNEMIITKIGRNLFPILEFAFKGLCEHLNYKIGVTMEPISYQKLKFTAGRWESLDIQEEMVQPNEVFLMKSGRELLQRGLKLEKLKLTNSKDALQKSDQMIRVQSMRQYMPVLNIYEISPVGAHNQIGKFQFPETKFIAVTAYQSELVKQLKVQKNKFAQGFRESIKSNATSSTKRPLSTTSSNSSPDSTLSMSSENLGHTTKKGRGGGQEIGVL
# [6] = target: T5, Y75B8A.6 (Y75B8A.6) (Caenorhabditis elegans) (UniProt A0A168H365)
# T5 sequence: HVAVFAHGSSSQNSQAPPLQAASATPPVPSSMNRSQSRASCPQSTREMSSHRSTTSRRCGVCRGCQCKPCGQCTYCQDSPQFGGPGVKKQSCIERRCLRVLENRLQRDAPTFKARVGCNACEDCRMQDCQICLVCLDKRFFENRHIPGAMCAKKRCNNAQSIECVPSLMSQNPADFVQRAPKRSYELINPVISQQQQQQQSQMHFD
# [7] = target: T6, efl-2 (Y48C3A.17) (Caenorhabditis elegans) (UniProt A5HWA8)
# T6 sequence: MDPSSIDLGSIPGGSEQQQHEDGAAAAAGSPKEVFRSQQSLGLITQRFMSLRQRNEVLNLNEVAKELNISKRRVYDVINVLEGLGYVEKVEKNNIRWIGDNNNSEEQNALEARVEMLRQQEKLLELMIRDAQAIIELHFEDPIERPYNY
# [8] = system: T7, syd-9 (ZK867.1) (Caenorhabditis elegans)
# T7 sequence: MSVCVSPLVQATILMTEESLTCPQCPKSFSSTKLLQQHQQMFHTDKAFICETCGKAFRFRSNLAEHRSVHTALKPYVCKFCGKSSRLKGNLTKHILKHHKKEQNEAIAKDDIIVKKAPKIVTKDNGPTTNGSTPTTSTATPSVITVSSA
# [9] = target: T8, lsl-1 (F52F12.4) (Caenorhabditis elegans) (UniProt O02273)
# T8 sequence: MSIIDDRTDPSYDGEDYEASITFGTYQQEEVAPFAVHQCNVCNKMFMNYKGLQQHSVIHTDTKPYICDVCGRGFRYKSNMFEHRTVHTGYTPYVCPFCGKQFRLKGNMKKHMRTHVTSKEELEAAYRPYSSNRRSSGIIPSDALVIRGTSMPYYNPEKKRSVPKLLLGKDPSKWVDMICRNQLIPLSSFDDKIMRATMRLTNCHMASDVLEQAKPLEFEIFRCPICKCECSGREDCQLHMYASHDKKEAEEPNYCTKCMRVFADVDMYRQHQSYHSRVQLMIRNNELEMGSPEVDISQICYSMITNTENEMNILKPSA
# [10] = target: T9, Y44A6D.3 (Y44A6D.3) (Caenorhabditis elegans) (UniProt Q9XXE0)
# T9 sequence: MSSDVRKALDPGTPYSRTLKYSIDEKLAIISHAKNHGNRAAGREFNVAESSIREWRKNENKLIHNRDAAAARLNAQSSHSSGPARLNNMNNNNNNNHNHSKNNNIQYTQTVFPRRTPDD
# klf-3 (F54H5.4) (Caenorhabditis elegans), sequence (Q65ZG6 180-315): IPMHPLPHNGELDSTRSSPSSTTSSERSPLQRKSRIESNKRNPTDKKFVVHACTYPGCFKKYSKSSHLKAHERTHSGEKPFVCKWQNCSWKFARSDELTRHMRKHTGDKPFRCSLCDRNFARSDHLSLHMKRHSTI
sequence,measurement,setting,value
AGAGTTAT (double strand) [8-mer AGAGTTAT],binding signal (PBM E-score (-0.5 to 0.5)),[1],0.481
AGGTGGTC (double strand) [8-mer AGGTGGTC],binding signal (PBM E-score (-0.5 to 0.5)),[2],0.475
CCACACCC (double strand) [8-mer CCACACCC],binding signal (PBM E-score (-0.5 to 0.5)),[3],0.486
GGTGTTAA (double strand) [8-mer GGTGTTAA],binding signal (PBM E-score (-0.5 to 0.5)),[4],0.488
same,binding signal (PBM E-score (-0.5 to 0.5)),[1],0.459
same,binding signal (PBM E-score (-0.5 to 0.5)),[5],0.492
CGCGCGCG (double strand) [8-mer CGCGCGCG],binding signal (PBM E-score (-0.5 to 0.5)),[6],0.476
same,binding signal (PBM E-score (-0.5 to 0.5)),[7],0.494
TACTGTAA (double strand) [8-mer TACTGTAA],binding signal (PBM E-score (-0.5 to 0.5)),[8],0.494
same,binding signal (PBM E-score (-0.5 to 0.5)),[9],0.49
AAGAGTTA (double strand) [8-mer AAGAGTTA],binding signal (PBM E-score (-0.5 to 0.5)),[1],0.463
TAACTCCA (double strand) [8-mer TAACTCCA],binding signal (PBM E-score (-0.5 to 0.5)),[1],0.475
AGACCACC (double strand) [8-mer AGACCACC],binding signal (PBM E-score (-0.5 to 0.5)),[2],0.494
GACCTCCC (double strand) [8-mer GACCTCCC],binding signal (PBM E-score (-0.5 to 0.5)),[2],0.479
CCGCGCGG (double strand) [8-mer CCGCGCGG],binding signal (PBM E-score (-0.5 to 0.5)),[6],0.465
same,binding signal (PBM E-score (-0.5 to 0.5)),[10],0.495
AGGCCACC (double strand) [8-mer AGGCCACC],binding signal (PBM E-score (-0.5 to 0.5)),[2],0.453
ATGGGTGG (double strand) [8-mer ATGGGTGG],binding signal (PBM E-score (-0.5 to 0.5)),[2],0.452
CGCGGAAA (double strand) [8-mer CGCGGAAA],binding signal (PBM E-score (-0.5 to 0.5)),[6],0.457
CCCCGCCC (double strand) [8-mer CCCCGCCC],binding signal (PBM E-score (-0.5 to 0.5)),[3],0.489
GACCACAC (double strand) [8-mer GACCACAC],binding signal (PBM E-score (-0.5 to 0.5)),[2],0.488
CCGCGGGA (double strand) [8-mer CCGCGGGA],binding signal (PBM E-score (-0.5 to 0.5)),[6],0.458
GGCCACCC (double strand) [8-mer GGCCACCC],binding signal (PBM E-score (-0.5 to 0.5)),[2],0.494
AAGGGCGT (double strand) [8-mer AAGGGCGT],binding signal (PBM E-score (-0.5 to 0.5)),[3],0.487
ATACGCCC (double strand) [8-mer ATACGCCC],binding signal (PBM E-score (-0.5 to 0.5)),[3],0.48
GAGTTATA (double strand) [8-mer GAGTTATA],binding signal (PBM E-score (-0.5 to 0.5)),[1],0.465
CTACAGTA (double strand) [8-mer CTACAGTA],binding signal (PBM E-score (-0.5 to 0.5)),[8],0.49
same,binding signal (PBM E-score (-0.5 to 0.5)),[9],0.498
TACGCCCA (double strand) [8-mer TACGCCCA],binding signal (PBM E-score (-0.5 to 0.5)),[3],0.486
GCGCGCGC (double strand) [8-mer GCGCGCGC],binding signal (PBM E-score (-0.5 to 0.5)),[6],0.465
same,binding signal (PBM E-score (-0.5 to 0.5)),[7],0.495
GACCCCCC (double strand) [8-mer GACCCCCC],binding signal (PBM E-score (-0.5 to 0.5)),[2],0.478
CACGCCCA (double strand) [8-mer CACGCCCA],binding signal (PBM E-score (-0.5 to 0.5)),[3],0.49
ATACTGTA (double strand) [8-mer ATACTGTA],binding signal (PBM E-score (-0.5 to 0.5)),[8],0.493
same,binding signal (PBM E-score (-0.5 to 0.5)),[9],0.494
CCGCGGAA (double strand) [8-mer CCGCGGAA],binding signal (PBM E-score (-0.5 to 0.5)),[6],0.468
GCGCGCAA (double strand) [8-mer GCGCGCAA],binding signal (PBM E-score (-0.5 to 0.5)),[6],0.458
ATACAGTA (double strand) [8-mer ATACAGTA],binding signal (PBM E-score (-0.5 to 0.5)),[8],0.492
same,binding signal (PBM E-score (-0.5 to 0.5)),[9],0.491
CCGCGCGC (double strand) [8-mer CCGCGCGC],binding signal (PBM E-score (-0.5 to 0.5)),[6],0.462
GACCACCA (double strand) [8-mer GACCACCA],binding signal (PBM E-score (-0.5 to 0.5)),[2],0.454
CCCGCCCA (double strand) [8-mer CCCGCCCA],binding signal (PBM E-score (-0.5 to 0.5)),[3],0.485
GGACCACC (double strand) [8-mer GGACCACC],binding signal (PBM E-score (-0.5 to 0.5)),[2],0.495
ACCACCCA (double strand) [8-mer ACCACCCA],binding signal (PBM E-score (-0.5 to 0.5)),[2],0.469
ATAACTCC (double strand) [8-mer ATAACTCC],binding signal (PBM E-score (-0.5 to 0.5)),[1],0.482
GTACAGTA (double strand) [8-mer GTACAGTA],binding signal (PBM E-score (-0.5 to 0.5)),[8],0.495
same,binding signal (PBM E-score (-0.5 to 0.5)),[9],0.495
TCCGCGGA (double strand) [8-mer TCCGCGGA],binding signal (PBM E-score (-0.5 to 0.5)),[6],0.471
ACGCCCAT (double strand) [8-mer ACGCCCAT],binding signal (PBM E-score (-0.5 to 0.5)),[3],0.49
GACCACCC (double strand) [8-mer GACCACCC],binding signal (PBM E-score (-0.5 to 0.5)),[2],0.499
CCACGCCC (double strand) [8-mer CCACGCCC],binding signal (PBM E-score (-0.5 to 0.5)),[3],0.494
CAACGCCC (double strand) [8-mer CAACGCCC],binding signal (PBM E-score (-0.5 to 0.5)),[3],0.482
AGAGTTAA (double strand) [8-mer AGAGTTAA],binding signal (PBM E-score (-0.5 to 0.5)),[1],0.452
GGGAGTTA (double strand) [8-mer GGGAGTTA],binding signal (PBM E-score (-0.5 to 0.5)),[1],0.459
CGCGGAAC (double strand) [8-mer CGCGGAAC],binding signal (PBM E-score (-0.5 to 0.5)),[6],0.454
AGGGCGTG (double strand) [8-mer AGGGCGTG],binding signal (PBM E-score (-0.5 to 0.5)),[3],0.491
GTACTGTA (double strand) [8-mer GTACTGTA],binding signal (PBM E-score (-0.5 to 0.5)),[8],0.496
same,binding signal (PBM E-score (-0.5 to 0.5)),[9],0.497
AACGCCCA (double strand) [8-mer AACGCCCA],binding signal (PBM E-score (-0.5 to 0.5)),[3],0.483
ATAACACC (double strand) [8-mer ATAACACC],binding signal (PBM E-score (-0.5 to 0.5)),[1],0.457
GGAGTTAA (double strand) [8-mer GGAGTTAA],binding signal (PBM E-score (-0.5 to 0.5)),[1],0.464
CGCGGCGC (double strand) [8-mer CGCGGCGC],binding signal (PBM E-score (-0.5 to 0.5)),[6],0.461
ACCACCCT (double strand) [8-mer ACCACCCT],binding signal (PBM E-score (-0.5 to 0.5)),[2],0.463
CTACGCCC (double strand) [8-mer CTACGCCC],binding signal (PBM E-score (-0.5 to 0.5)),[3],0.48
TACAGTAA (double strand) [8-mer TACAGTAA],binding signal (PBM E-score (-0.5 to 0.5)),[8],0.494
same,binding signal (PBM E-score (-0.5 to 0.5)),[9],0.495
TAACTCTA (double strand) [8-mer TAACTCTA],binding signal (PBM E-score (-0.5 to 0.5)),[1],0.459
AGGGCGTA (double strand) [8-mer AGGGCGTA],binding signal (PBM E-score (-0.5 to 0.5)),[3],0.484
CCCGCGGG (double strand) [8-mer CCCGCGGG],binding signal (PBM E-score (-0.5 to 0.5)),[6],0.451
GGGGTTAA (double strand) [8-mer GGGGTTAA],binding signal (PBM E-score (-0.5 to 0.5)),[1],0.454
AGTGTTAT (double strand) [8-mer AGTGTTAT],binding signal (PBM E-score (-0.5 to 0.5)),[1],0.454
GTACGGTA (double strand) [8-mer GTACGGTA],binding signal (PBM E-score (-0.5 to 0.5)),[8],0.492
same,binding signal (PBM E-score (-0.5 to 0.5)),[9],0.494
AGGGTAAA (double strand) [8-mer AGGGTAAA],binding signal (PBM E-score (-0.5 to 0.5)),[2],0.46
CGCGCGGC (double strand) [8-mer CGCGCGGC],binding signal (PBM E-score (-0.5 to 0.5)),[6],0.451
